Measured values published in US20220273789A1.
pKd: −log10 of the molar value.

The substances below were run against human IgG (human) (assay: BLI Octet, construct on Ni-NTA sensor, hIgG in solution).
For “HSV2-gE_A248T F322P_gI (from UniProt P89475 21-416; P06764 21-256) (receptor)”, the pKd was 5.83, the Response (nm) was 0.2 nm and the koff was 0.00426 s⁻¹. For the same substance, the kon was 2870 M⁻¹ s⁻¹.
With “HSV2-gE_A248T V340R_gI (from UniProt P89475 21-416; P06764 21-256) (receptor)” the pKd was > 12.00, the Response (nm) was 0.183 nm and the koff was < 1e-07 s⁻¹. The kon was 5000 M⁻¹ s⁻¹.
In the case of “HSV2-gE_F322A_gI (from UniProt P89475 21-416; P06764 21-256) (receptor)”, the pKd was 6.78, the Response (nm) was 0.86 nm and the koff was 0.00273 s⁻¹. The kon was 16400 M⁻¹ s⁻¹.
“HSV2-gE_F322I_gI (from UniProt P89475 21-416; P06764 21-256) (receptor)” gave a pKd of 6.52, a Response (nm) of 0.639 nm and a koff of 0.00363 s⁻¹. For the same substance, the kon was 12000 M⁻¹ s⁻¹.
Substance “HSV2-gE_F322K_gI (from UniProt P89475 21-416; P06764 21-256) (receptor)” has a pKd of 6.56, a Response (nm) of 0.599 nm and a koff of 0.00301 s⁻¹. It also gave a kon of 10800 M⁻¹ s⁻¹.
For “HSV2-gE_F322N_gI (from UniProt P89475 21-416; P06764 21-256) (receptor)”, the pKd was 6.62, the Response (nm) was 0.73 nm and the koff was 0.00313 s⁻¹. The kon was 13100 M⁻¹ s⁻¹.
Work on “HSV2-gE_F322P_gI (from UniProt P89475 21-416; P06764 21-256) (receptor)” yielded a pKd of 6.80, a Response (nm) of 0.807 nm and a koff of 0.00223 s⁻¹. It also gave a kon of 13900 M⁻¹ s⁻¹.
“HSV2-gE_F322T_gI (from UniProt P89475 21-416; P06764 21-256) (receptor)” gave a pKd of 6.75, a Response (nm) of 0.762 nm and a koff of 0.00269 s⁻¹. The kon was 15000 M⁻¹ s⁻¹.
Work on “HSV2-gE_H245A P319G_gI (from UniProt P89475 21-416; P06764 21-256) (receptor)” yielded a pKd of 6.31, a Response (nm) of 0.26 nm and a koff of 0.00391 s⁻¹. The kon was 7970 M⁻¹ s⁻¹.
“HSV2-gE_H245A P319L_gI (from UniProt P89475 21-416; P06764 21-256) (receptor)” showed a pKd of 6.35, a Response (nm) of 0.265 nm and a koff of 0.00273 s⁻¹. It also gave a kon of 6080 M⁻¹ s⁻¹.
With “HSV2-gE_H245G P319G_gI (from UniProt P89475 21-416; P06764 21-256) (receptor)” the pKd was 5.70, the Response (nm) was 0.157 nm and the koff was 0.00357 s⁻¹. For the same substance, the kon was 1780 M⁻¹ s⁻¹.
In the case of “HSV2-gE_H245G P319L_gI (from UniProt P89475 21-416; P06764 21-256) (receptor)”, the pKd was 6.49, the Response (nm) was 0.361 nm and the koff was 0.00189 s⁻¹. It also gave a kon of 5760 M⁻¹ s⁻¹.
For “HSV2-gE_H245G R320T_gI (from UniProt P89475 21-416; P06764 21-256) (receptor)”, the pKd was 6.23, the Response (nm) was 0.279 nm and the koff was 0.00319 s⁻¹. It also gave a kon of 5400 M⁻¹ s⁻¹.
“HSV2-gE_H245G_gI (from UniProt P89475 21-416; P06764 21-256) (receptor)” gave a pKd of 5.79, a Response (nm) of 0.424 nm and a koff of 0.00669 s⁻¹. For the same substance, the kon was 4110 M⁻¹ s⁻¹.
For “HSV2-gE_H245I_gI (from UniProt P89475 21-416; P06764 21-256) (receptor)”, the pKd was 6.74, the Response (nm) was 1.02 nm and the koff was 0.00301 s⁻¹. The kon was 16500 M⁻¹ s⁻¹.
For “HSV2-gE_H245K_gI (from UniProt P89475 21-416; P06764 21-256) (receptor)”, the pKd was 6.16, the Response (nm) was 0.562 nm and the koff was 0.00614 s⁻¹. For the same substance, the kon was 8960 M⁻¹ s⁻¹.
In the case of “HSV2-gE_H245Q_gI (from UniProt P89475 21-416; P06764 21-256) (receptor)”, the pKd was 6.49, the Response (nm) was 0.896 nm and the koff was 0.0048 s⁻¹. For the same substance, the kon was 15000 M⁻¹ s⁻¹.
